Measured values published in publication doi:10.1101/2021.07.23.453429 (bioRxiv, 2021).

B1: cyclophilin D (enzyme)
chain: not shown

What was measured:
cyclophilin D = target: B1; assay: SPR
full-length p53 = full-length p53 (UniProt P04637 1-393); assay: SPR

Sequence of cyclophilin D (P30405 43-207): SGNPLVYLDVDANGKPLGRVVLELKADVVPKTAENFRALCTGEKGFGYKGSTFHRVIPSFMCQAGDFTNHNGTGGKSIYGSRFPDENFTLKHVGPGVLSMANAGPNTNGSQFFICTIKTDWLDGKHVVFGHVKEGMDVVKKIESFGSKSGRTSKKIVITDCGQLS

Kd (full-length p53)	Binder	Kd (cyclophilin D)
	p53 NTD 20-70 (domain or fragment) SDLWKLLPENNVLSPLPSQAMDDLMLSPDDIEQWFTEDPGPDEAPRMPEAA	9.4 µM
~1 µM	B1	
